Key:
[1] = molecular target: 人PD-L1 expressed on cells (表达PD-L1的CHO细胞) (human) (UniProt Q9NZQ7); experiment: cell-based or functional assay
[2] = molecular target: T1, 融合至人IgG1 Fc段的人PD-L1胞外结构域的重组蛋白PD-L1-Fc (GenScript, Z03371) (human, UniProt Q9NZQ7 19-238, biotin-labelled in the PD-1 competition ELISA (site not stated)); experiment: indirect ELISA, PD-L1-Fc coated at 0.5 μg/ml, antibody titrated
T1 construct: extracellular domain; Bought reagent (GenScript Z03371); also called 重组PD-L1-Fc; 生物素标记的PD-L1-Fc; not shown: Human IgG1 Fc segment
T1 sequence (Q9NZQ7 19-238 limits assumed, one chain of several): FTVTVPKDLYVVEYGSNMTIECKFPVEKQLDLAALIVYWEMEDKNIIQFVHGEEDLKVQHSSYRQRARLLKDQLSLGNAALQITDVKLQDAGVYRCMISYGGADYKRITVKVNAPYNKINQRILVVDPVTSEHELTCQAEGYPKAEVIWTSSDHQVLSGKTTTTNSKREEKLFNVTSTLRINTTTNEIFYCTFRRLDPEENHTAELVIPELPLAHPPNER

[3] = molecular target: T1, 融合至人IgG1 Fc段的人PD-L1胞外结构域的重组蛋白PD-L1-Fc …; experiment: competition ELISA: antibody titrated against biotinylated PD-L1-Fc binding to coated human PD-1

Row | Binder | IL-2分泌 (混合淋巴细胞反应) EC50 [1] [µg/mL] | 相对光单位(RLU) NFAT报告细胞 EC50 [1] [µg/mL] | EC50 [2] [µg/mL] | IC50 [3] [µg/mL]
1 | 18B7F4G8 (antibody, V domains shown, Mouse hybridoma clone; Detected with goat anti-mouse IgG) VH: DVQLQESGPDLVKPSQSLSLTCTVTGYSITSGYTWHWIRQFPGNKLEWMGYIHYSGSTKYNPSLKSRFSITRDTSKNQFFLQLNSMTAEDTATYYCARNSLFASWGHGTLVTVSA VL: DIVLTQSPASLAVSLGQRATISCRASESVDTYGDSFMHWFQQKPGQPPKLLIYRASNLESGIPARFSGSGSRTDFTLTINPVEADDVATYYCQQSNEAPYTFGGGTKLEIK | 0.359 | 0.359 | 0.00531 | 
2 | 29A8H8C7 (antibody, V domains shown, Mouse hybridoma clone; Made recombinantly as variable region + constant region in HEK293-6E) VH: DVQLQGSGPGLVKPSQSLSLTCTVTGYSITSDFAWDWIRQFPGNKLEWMGHIRFSGTTSYNPSLKSRISITRDTSKNQFFLQLNSVTSEDTATYYCARSTLITKGFFDYWGQGTTLTVSS VL: DIVMTQSHKFMSTSVGGRVSITCKASQDVSPAVAWYQQKPGQSPKLLIYWASTRHTGVPDRFTGSGSGTDFTLTISSVQTEDLALYYCQQHYSTPWTFGGGTKLEIK | 0.101 | 0.751 | 0.00498 | 0.39

More lines, now with the values ahead:

Row | IL-2分泌 (混合淋巴细胞反应) EC50 [1] [µg/mL] | 相对光单位(RLU) NFAT报告细胞 EC50 [1] [µg/mL] | EC50 [2] [µg/mL] | IC50 [3] [µg/mL] | Binder
3 | 0.235 | 1.17 | 0.00458 | 0.48 | 42G2D7C3 (antibody, V domains shown, Made recombinantly as variable region + constant region; also called 42G2D7D3) VH: DVQLLESGPGLVKPSQSLSLTCSVTGYSITSGYYWNWIRQFPGNNLEWMGSINYDGSNDYNPSLQDRISITRDTSKNQFFLKLNSVTTEDTATYYCARRLDYWGQGTTLIVSS VL: QIVLTQSPAIMSASPGEKVTISCSASSFINYMYWYQQKPGSSPKPWILRTSTLASGVPARFSGSGSGTSYSLTISSMEAEDAATYYCQQYHSYPLTFGAGTKLELK
4 | 0.0947 | 0.576 | 0.00467 | 0.32 | 53C1F3D4 (antibody, V domains shown, Mouse hybridoma clone; Made recombinantly as variable region + constant region in HEK293-6E) VH: QVQLQQSGNELARPGASVRLSCKASGYIFTGYGITWVRQRPGQGLEWIGEIFPRRVNTYYSEKFKGRATLTADISSSTAYMELRSLTSEDSAVYFCARDYDPYFALDYWGQGTSVTVSS VL: DIVMTQSHKFMSTSVGDRVSITCKASQDVSTAVDWYQQKPGQSPKLLIYSASYRYTGVPDRFTGSGSGTAFTFTISGEQAEDLAVYYCQQHYSIPFTFGGGTKLEIK
5 | 0.209 | 0.883 | 0.0063 | 0.4 | 51F3D2G4 (antibody, V domains shown, Mouse hybridoma clone; Made recombinantly as variable region + constant region in HEK293-6E) VH: QVQLQQSGAELARPGASVRLSCKASGYIFTGYGISWVKQRTGQGLEWIGEIFPRTANTYFNEKFKGKATLTADKSSSTAYMELRSLTSEDSAVYFCARDYDPYYALDYWGQGTSVTVSS VL: DIVMTQSHKFMSTSVGDRVTITCKASQDVSTAVDWYQQKPGQSPKLLIYSASYRYTGVPDRFTGSGSGTAFTFTISSEQAEDLAVYYCQQHYSVPFTFGGGTKLEIK

— CN108239149A (NANJING LEGEND BIOTECHNOLOGY CO LTD, dated 2018)
